Results: patent US20190233493A1 (Sanofi, published 2019)
*1 amine or outer side, *2 acyl side, *3 side chain or, on linkers, in order; H or OH if unused. Primed or numbered codes have the meaning given here. Side-chain parts run from the residue outwards. [ ]: non-standard residue; d: D form. The star is where a group is joined. PEG28′ = polyethylene glycol spacer with 28 ethoxy units (aminoethoxy-ethoxy chain); PEG24′ = polyethylene glycol spacer of 24 ethoxy units; PEG12 = NCCOCCOCCOCCOCCOCCOCCOCCOCCOCCOCCOCCOCCC(=O)O; γGlu = O=C(O)[C@H](CCC(=O)[*:2])N[*:1]; 1Nal = N[C@@H](Cc1cccc2ccccc12)C(=O)O; Stearoyl = CCCCCCCCCCCCCCCCCC(=O)*; Palmitoyl = CCCCCCCCCCCCCCCC(=O)*; αMeK = C[C@](N)(CCCCN)C(=O)O; Nle = CCCC[C@H](N)C(=O)O; PEG2′ = PEG2 spacer unit; Aib = CC(C)(N)C(=O)O

T1: RXFP1 receptor (UniProt Q9HBX9 1-757, limits assumed)
T1 sequence (looked up): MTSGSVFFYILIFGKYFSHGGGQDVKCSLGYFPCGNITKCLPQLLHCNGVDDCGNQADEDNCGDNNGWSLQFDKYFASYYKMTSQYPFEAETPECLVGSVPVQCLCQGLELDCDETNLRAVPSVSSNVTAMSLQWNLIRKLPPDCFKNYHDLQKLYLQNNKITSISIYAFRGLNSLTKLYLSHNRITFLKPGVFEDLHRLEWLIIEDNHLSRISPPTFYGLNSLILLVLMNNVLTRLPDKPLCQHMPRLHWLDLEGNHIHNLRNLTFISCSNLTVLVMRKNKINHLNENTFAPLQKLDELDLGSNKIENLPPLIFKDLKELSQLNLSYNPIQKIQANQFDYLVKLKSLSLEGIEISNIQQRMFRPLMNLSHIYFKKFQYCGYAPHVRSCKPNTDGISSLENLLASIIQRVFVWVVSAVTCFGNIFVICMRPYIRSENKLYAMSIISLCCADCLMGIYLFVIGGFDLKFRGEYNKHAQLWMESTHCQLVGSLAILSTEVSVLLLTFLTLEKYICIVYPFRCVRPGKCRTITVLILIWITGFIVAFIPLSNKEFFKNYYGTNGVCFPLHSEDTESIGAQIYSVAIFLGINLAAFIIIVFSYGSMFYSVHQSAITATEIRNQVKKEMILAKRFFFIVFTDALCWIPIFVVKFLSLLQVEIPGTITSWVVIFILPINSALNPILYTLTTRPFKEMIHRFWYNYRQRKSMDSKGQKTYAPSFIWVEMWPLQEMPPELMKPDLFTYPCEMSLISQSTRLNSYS

B1: peptide of SEQ ID NO: 42 (peptide)
peptide: Ac-LEGREKVRAK(Ac)I[Aib][Aib]EG[Nle]STWS[αMeK]RKK(Ac)[PEG12]K([γGlu-γGlu-γGlu-γGlu-Stearoyl])-NH2
SMILES: CCCCCCCCCCCCCCCCCC(=O)N[C@@H](CCC(=O)N[C@@H](CCC(=O)N[C@@H](CCC(=O)N[C@@H](CCC(=O)NCCCC[C@H](NC(=O)CCOCCOCCOCCOCCOCCOCCOCCOCCOCCOCCOCCOCCNC(=O)[C@H](CCCCNC(C)=O)NC(=O)[C@H](CCCCN)NC(=O)[C@H](CCCNC(=N)N)NC(=O)[C@](C)(CCCCN)NC(=O)[C@H](CO)NC(=O)[C@H](Cc1c[nH]c2ccccc12)NC(=O)[C@@H](NC(=O)[C@H](CO)NC(=O)[C@H](CCCC)NC(=O)CNC(=O)[C@H](CCC(=O)O)NC(=O)C(C)(C)NC(=O)C(C)(C)NC(=O)[C@@H](NC(=O)[C@H](CCCCNC(C)=O)NC(=O)[C@H](C)NC(=O)[C@H](CCCNC(=N)N)NC(=O)[C@@H](NC(=O)[C@H](CCCCN)NC(=O)[C@H](CCC(=O)O)NC(=O)[C@H](CCCNC(=N)N)NC(=O)CNC(=O)[C@H](CCC(=O)O)NC(=O)[C@H](CC(C)C)NC(C)=O)C(C)C)[C@@H](C)CC)[C@@H](C)O)C(N)=O)C(=O)O)C(=O)O)C(=O)O)C(=O)O
B2: peptide of SEQ ID NO: 38 (peptide)
peptide: Ac-LEGREKVRAK(Ac)I[Aib][Aib]EG[Nle]STWS[Aib]RK[PEG12]K([γGlu-γGlu-γGlu-Palmitoyl])-NH2
SMILES: CCCCCCCCCCCCCCCC(=O)N[C@@H](CCC(=O)N[C@@H](CCC(=O)N[C@@H](CCC(=O)NCCCC[C@H](NC(=O)CCOCCOCCOCCOCCOCCOCCOCCOCCOCCOCCOCCOCCNC(=O)[C@H](CCCCN)NC(=O)[C@H](CCCNC(=N)N)NC(=O)C(C)(C)NC(=O)[C@H](CO)NC(=O)[C@H](Cc1c[nH]c2ccccc12)NC(=O)[C@@H](NC(=O)[C@H](CO)NC(=O)[C@H](CCCC)NC(=O)CNC(=O)[C@H](CCC(=O)O)NC(=O)C(C)(C)NC(=O)C(C)(C)NC(=O)[C@@H](NC(=O)[C@H](CCCCNC(C)=O)NC(=O)[C@H](C)NC(=O)[C@H](CCCNC(=N)N)NC(=O)[C@@H](NC(=O)[C@H](CCCCN)NC(=O)[C@H](CCC(=O)O)NC(=O)[C@H](CCCNC(=N)N)NC(=O)CNC(=O)[C@H](CCC(=O)O)NC(=O)[C@H](CC(C)C)NC(C)=O)C(C)C)[C@@H](C)CC)[C@@H](C)O)C(N)=O)C(=O)O)C(=O)O)C(=O)O
B3: peptide of SEQ ID NO: 41 (peptide)
peptide: Ac-LEGREKVRAK(Ac)I[Aib][Aib]EG[Nle]STWX[Aib]RKK(Ac)[PEG12]K([γGlu-γGlu-γGlu-Stearoyl])-NH2
modifications: not fully specified (some residues); printed as Ac-L-E-G-R-E-K-V-R-A-K(Ac)-I-Aib-Aib-E-G-Nle-S-T-W-Mse-Aib-R-K-K(Ac)-PEG12-K(gE-gE-gE-Stea)-NH2
B4: peptide of SEQ ID NO: 40 (peptide)
peptide: Ac-LEGREKVRAK(Ac)I[Aib][Aib]EG[Nle]STWXXRKK(Ac)[PEG12]K([γGlu-γGlu-γGlu-γGlu-Stearoyl])-NH2
modifications: not fully specified (some residues); printed as Ac-L-E-G-R-E-K-V-R-A-K(Ac)-I-Aib-Aib-E-G-Nle-S-T-W-Mse-Mly-R-K-K(Ac)-PEG12-K(gE-gE-gE-gE-Stea)-NH2
B5: peptide of SEQ ID NO: 46 (peptide)
peptide: Ac-LEGREKVRAK(Ac)I[Aib][Aib]EG[Nle]STYS[Aib]RKK(Ac)[PEG12]K([γGlu-γGlu-γGlu-Stearoyl])-NH2
SMILES: CCCCCCCCCCCCCCCCCC(=O)N[C@@H](CCC(=O)N[C@@H](CCC(=O)N[C@@H](CCC(=O)NCCCC[C@H](NC(=O)CCOCCOCCOCCOCCOCCOCCOCCOCCOCCOCCOCCOCCNC(=O)[C@H](CCCCNC(C)=O)NC(=O)[C@H](CCCCN)NC(=O)[C@H](CCCNC(=N)N)NC(=O)C(C)(C)NC(=O)[C@H](CO)NC(=O)[C@H](Cc1ccc(O)cc1)NC(=O)[C@@H](NC(=O)[C@H](CO)NC(=O)[C@H](CCCC)NC(=O)CNC(=O)[C@H](CCC(=O)O)NC(=O)C(C)(C)NC(=O)C(C)(C)NC(=O)[C@@H](NC(=O)[C@H](CCCCNC(C)=O)NC(=O)[C@H](C)NC(=O)[C@H](CCCNC(=N)N)NC(=O)[C@@H](NC(=O)[C@H](CCCCN)NC(=O)[C@H](CCC(=O)O)NC(=O)[C@H](CCCNC(=N)N)NC(=O)CNC(=O)[C@H](CCC(=O)O)NC(=O)[C@H](CC(C)C)NC(C)=O)C(C)C)[C@@H](C)CC)[C@@H](C)O)C(N)=O)C(=O)O)C(=O)O)C(=O)O
B6: peptide of SEQ ID NO: 39 (peptide)
peptide: Ac-LEGREKVRAK(Ac)I[Aib][Aib]EG[Nle]STWXKRKK(Ac)[PEG12]K([γGlu-γGlu-γGlu-γGlu-Stearoyl])-NH2
modifications: not fully specified (some residues); printed as Ac-L-E-G-R-E-K-V-R-A-K(Ac)-I-Aib-Aib-E-G-Nle-S-T-W-Mse-K-R-K-K(Ac)-PEG12-K(gE-gE-gE-gE-Stea)-NH2
B7: peptide of SEQ ID NO: 45 (peptide)
peptide: Ac-LEGREKVRAK(Ac)I[Aib][Aib]EG[Nle]ST[1Nal]S[Aib]RK[PEG12]K([γGlu-γGlu-γGlu-Stearoyl])-NH2
SMILES: CCCCCCCCCCCCCCCCCC(=O)N[C@@H](CCC(=O)N[C@@H](CCC(=O)N[C@@H](CCC(=O)NCCCC[C@H](NC(=O)CCOCCOCCOCCOCCOCCOCCOCCOCCOCCOCCOCCOCCNC(=O)[C@H](CCCCN)NC(=O)[C@H](CCCNC(=N)N)NC(=O)C(C)(C)NC(=O)[C@H](CO)NC(=O)[C@H](Cc1cccc2ccccc12)NC(=O)[C@@H](NC(=O)[C@H](CO)NC(=O)[C@H](CCCC)NC(=O)CNC(=O)[C@H](CCC(=O)O)NC(=O)C(C)(C)NC(=O)C(C)(C)NC(=O)[C@@H](NC(=O)[C@H](CCCCNC(C)=O)NC(=O)[C@H](C)NC(=O)[C@H](CCCNC(=N)N)NC(=O)[C@@H](NC(=O)[C@H](CCCCN)NC(=O)[C@H](CCC(=O)O)NC(=O)[C@H](CCCNC(=N)N)NC(=O)CNC(=O)[C@H](CCC(=O)O)NC(=O)[C@H](CC(C)C)NC(C)=O)C(C)C)[C@@H](C)CC)[C@@H](C)O)C(N)=O)C(=O)O)C(=O)O)C(=O)O
B8: peptide of SEQ ID NO: 37 (peptide)
peptide: Ac-LEGREKVR[Aib]K(Ac)I[Aib][Aib]EG[Nle]ST[1Nal]S[Aib]RKK(Ac)[PEG12]K([γGlu-γGlu-γGlu-Stearoyl])-NH2
SMILES: CCCCCCCCCCCCCCCCCC(=O)N[C@@H](CCC(=O)N[C@@H](CCC(=O)N[C@@H](CCC(=O)NCCCC[C@H](NC(=O)CCOCCOCCOCCOCCOCCOCCOCCOCCOCCOCCOCCOCCNC(=O)[C@H](CCCCNC(C)=O)NC(=O)[C@H](CCCCN)NC(=O)[C@H](CCCNC(=N)N)NC(=O)C(C)(C)NC(=O)[C@H](CO)NC(=O)[C@H](Cc1cccc2ccccc12)NC(=O)[C@@H](NC(=O)[C@H](CO)NC(=O)[C@H](CCCC)NC(=O)CNC(=O)[C@H](CCC(=O)O)NC(=O)C(C)(C)NC(=O)C(C)(C)NC(=O)[C@@H](NC(=O)[C@H](CCCCNC(C)=O)NC(=O)C(C)(C)NC(=O)[C@H](CCCNC(=N)N)NC(=O)[C@@H](NC(=O)[C@H](CCCCN)NC(=O)[C@H](CCC(=O)O)NC(=O)[C@H](CCCNC(=N)N)NC(=O)CNC(=O)[C@H](CCC(=O)O)NC(=O)[C@H](CC(C)C)NC(C)=O)C(C)C)[C@@H](C)CC)[C@@H](C)O)C(N)=O)C(=O)O)C(=O)O)C(=O)O

target: T1, RXFP1 receptor; assay: cell-based or functional assay

Row | Binder | EC50 (nM), OVCAR 5 cells (cAMP) [nM] | EMax, OVCAR 5 cells (cAMP) [%]
1 | B1 | 0.01 | 91
2 | Ac-LEGREKVRAK(Ac)I[Aib][Aib]EGQSTYS[Aib]RKK(Ac)K([PEG2′-PEG2′-PEG2′-γGlu-γGlu-γGlu-Palmitoyl])-NH2 [peptide of SEQ ID NO: 44] | 16.1 | 75
3 | B2 | 0.21 | 89
4 | Ac-LEGREKVRAK(Ac)I[Aib][Aib]EG[Nle]STWS[Aib]RKK[PEG28′]K([γGlu-γGlu-γGlu-Stearoyl])-NH2 [peptide of SEQ ID NO: 48] | 0.25 | 99
5 | Ac-LEGREKVRAK(Ac)I[Aib][Aib]EG[Nle]STWS[αMeK]RKK(Ac)[PEG12]K([γGlu-γGlu-γGlu-γGlu-Palmitoyl])-NH2 [peptide of SEQ ID NO: 43] | 0.14 | 106
6 | Ac-LEGREKVRAK(Ac)I[Aib][Aib]EG[Nle]STWS[Aib]RKK(Ac)[PEG28′]K([γGlu-γGlu-γGlu-Stearoyl])-NH2 [peptide of SEQ ID NO: 49] | 1.65 | 106
7 | B3 | 0.09 | 87
8 | B4 | 0.02 | 90
9 | B5 | 0.61 | 79
10 | Ac-LEGREKVRAQI[Aib][Aib]EGMSTWS[Aib]RK[PEG24′]K([γGlu-γGlu-γGlu-Palmitoyl])-NH2 [peptide of SEQ ID NO: 47] | 2.56 | 100
11 | B6 | 0.03 | 91
12 | B7 | 0.81 | 79
13 | B8 | 2.49 | 83
